Reference: patent US20260083725A1, “SIGMARI LIGAND FOR THE TREATMENT OF PANCREATIC CANCER” (INSTITUT NATIONAL DE LA SANTÉ ET DE LA RECHERCHE MÉDICALE, priority 2022, published 2026)

Tested on: SK2 channel
Assay: Whole cell patch clamp recording of SK2 current in pancreatic cancer cells
Type: cell-based, human
Settings: cells treated without CAF-CM; EGF 25 ng/mL overnight
Protocol: Electrophysiological recordings in HEK293-T, PANC-1 and MiaPaCa-2 cells were performed in the whole cell configuration of the patch clamp technique at room temperature. Cells were bathed in a solution containing: 5 mM KCl, 145 mM NaCl, 1 mM MgCl2, 2 mM CaCl2, and 10 mM Hepes (pH adjusted to 7.4 with HCl, 300 mosm/L). Soft glass patch electrodes (Brand, Wertheim, Germany) were made on a horizontal pipette puller (P-97, Sutter Instrument Co., Novato, CA) to achieve a final resistance ranging from 3 to 5 MΩ. The internal solution was: 145 mM KCl, 1 mM MgCl2, 0.87 mM CaCl2, 1 mM EGTA, 10 mM Hepes, 1 mM ATP (pH adjusted to 7.2 with KOH, 308 mosm/L, pCa 6). Recordings were performed at room temperature in the voltage clamp mode using an PC-controlled EPC 9 patch-clamp amplifier (HEKA, Lambrecht/Pfalz, Germany). Currents were acquired and analyzed with Pulse and Pulsefit software (HEKA). Signal were filtered at 10 kHz and digitalized at 20 kHz. Currents were elicited by voltage ramps protocols (from −120 to +60 mV). Current density was measured at 0 mV. For the electrophysiological study of the SK2 mutations, HEK293-T were transfected with the different constructions and the HA-myr-AKT using calcium phosphate and recorded 24 h after transfection.

B1: EGF: EGFR ligand; growth factor applied to cells at 25 ng/mL (protein, UniProt P01133 23-1207, looked up)
Pro-epidermal growth factor: PQHWSCPEGTLAGNGNSTCVGPAPFLIFSHGNSIFRIDTEGTNYEQLVVDAGVSVIMDFHYNEKRIYWVDLERQLLQRVFLNGSRQERVCNIEKNVSGMAINWINEEVIWSNQQEGIITVTDMKGNNSHILLSALKYPANVAVDPVERFIFWSSEVAGSLYRADLDGVGVKALLETSEKITAVSLDVLDKRLFWIQYNREGSNSLICSCDYDGGSVHISKHPTQHNLFAMSLFGDRIFYSTWKMKTIWIANKHTGKDMVRINLHSSFVPLGELKVVHPLAQPKAEDDTWEPEQKLCKLRKGNCSSTVCGQDLQSHLCMCAEGYALSRDRKYCEDVNECAFWNHGCTLGCKNTPGSYYCTCPVGFVLLPDGKRCHQLVSCPRNVSECSHDCVLTSEGPLCFCPEGSVLERDGKTCSGCSSPDNGGCSQLCVPLSPVSWECDCFPGYDLQLDEKSCAASGPQPFLLFANSQDIRHMHFDGTDYGTLLSQQMGMVYALDHDPVENKIYFAHTALKWIERANMDGSQRERLIEEGVDVPEGLAVDWIGRRFYWTDRGKSLIGRSDLNGKRSKIITKENISQPRGIAVHPMAKRLFWTDTGINPRIESSSLQGLGRLVIASSDLIWPSGITIDFLTDKLYWCDAKQSVIEMANLDGSKRRRLTQNDVGHPFAVAVFEDYVWFSDWAMPSVMRVNKRTGKDRVRLQGSMLKPSSLVVVHPLAKPGADPCLYQNGGCEHICKKRLGTAWCSCREGFMKASDGKTCLALDGHQLLAGGEVDLKNQVTPLDILSKTRVSEDNITESQHMLVAEIMVSDQDDCAPVGCSMYARCISEGEDATCQCLKGFAGDGKLCSDIDECEMGVPVCPPASSKCINTEGGYVCRCSEGYQGDGIHCLDIDECQLGEHSCGENASCTNTEGGYTCMCAGRLSEPGLICPDSTPPPHLREDDHHYSVRNSDSECPLSHDGYCLHDGVCMYIEALDKYACNCVVGYIGERCQYRDLKWWELRHAGHGQQQKVIVVAVCVVVLVMLLLLSLWGAHYYRTQKLLSKNPKNPYEESSRDVRSRRPADTEDGMSSCPQPWFVVIKEHQDLKNGGQPVAGEDGQAADGSMQPTSWRQEPQLCGMGTEQGCWIPVSSDKGSCPQVMERSFHMPSYGTQTLEGGVEKPHSLLSANPLWQQRALDPPHQMELTQ
modifications: Pro-epidermal growth factor
notes: EGFR ligand; growth factor applied to cells at 25 ng/mL
- SK2 current: significant increase
